Ends that are not written are not given here. * marks the point of attachment. Biotin = O=C1N[C@H]2[C@H](CS[C@H]2CCCCC(=O)*)N1
Columns and labels:
Test in all cases: peptide or protein array; E. coli proteome chip: purified His-tagged proteins printed in duplicate on Fullmoon slides, blocked with 1% BSA; 10 nM N-terminal biotinylated LfcinB with 1% BSA, room temperature, 1 h; detected with DyLight 649-labeled streptavidin, ratio to DyLight 549-labeled anti-His antibody; ProCAT normalisation, local cut-off; triplicate chips
Settings in all cases: both partners purified
[1] = target: T1, NrdD (E. coli K-12, UniProt P28903 1-712)
T1 construct: NrdD, ribonucleotide reductase family, E. coli K-12
T1 sequence (looked up): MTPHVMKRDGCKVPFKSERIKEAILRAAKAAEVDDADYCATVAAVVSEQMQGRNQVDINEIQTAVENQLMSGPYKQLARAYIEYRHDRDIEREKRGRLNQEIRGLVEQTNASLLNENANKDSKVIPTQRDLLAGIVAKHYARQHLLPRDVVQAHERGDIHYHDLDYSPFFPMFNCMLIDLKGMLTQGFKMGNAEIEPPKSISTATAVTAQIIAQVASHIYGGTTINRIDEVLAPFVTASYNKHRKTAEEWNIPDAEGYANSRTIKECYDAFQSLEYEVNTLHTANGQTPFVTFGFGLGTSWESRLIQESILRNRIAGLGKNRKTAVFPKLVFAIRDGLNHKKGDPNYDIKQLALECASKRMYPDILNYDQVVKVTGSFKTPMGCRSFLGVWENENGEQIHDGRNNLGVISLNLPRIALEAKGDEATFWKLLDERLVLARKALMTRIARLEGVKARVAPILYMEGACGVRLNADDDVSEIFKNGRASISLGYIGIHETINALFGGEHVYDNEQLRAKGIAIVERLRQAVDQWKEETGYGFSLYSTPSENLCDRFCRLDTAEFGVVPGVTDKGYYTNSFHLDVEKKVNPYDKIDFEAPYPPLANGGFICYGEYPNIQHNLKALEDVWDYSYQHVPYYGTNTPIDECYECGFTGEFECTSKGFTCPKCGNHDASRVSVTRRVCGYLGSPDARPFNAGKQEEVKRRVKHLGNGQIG

[2] = target: T2, GldA (E. coli K-12, UniProt P0A9S5 1-367)
T2 construct: GldA, E. coli K-12
T2 sequence (looked up): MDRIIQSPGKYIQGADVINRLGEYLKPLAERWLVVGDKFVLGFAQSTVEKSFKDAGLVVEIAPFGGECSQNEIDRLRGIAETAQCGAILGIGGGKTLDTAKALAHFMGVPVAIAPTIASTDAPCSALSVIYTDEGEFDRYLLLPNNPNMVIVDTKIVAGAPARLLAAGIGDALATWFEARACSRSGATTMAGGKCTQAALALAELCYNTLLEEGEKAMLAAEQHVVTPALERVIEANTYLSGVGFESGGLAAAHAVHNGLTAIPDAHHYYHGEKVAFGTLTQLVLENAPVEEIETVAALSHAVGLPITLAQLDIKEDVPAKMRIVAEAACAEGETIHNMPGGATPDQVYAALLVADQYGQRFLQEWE

[3] = target: T3, YdaU (E. coli K-12, UniProt P76065 1-285)
T3 construct: YdaU, E. coli K-12
T3 sequence (looked up): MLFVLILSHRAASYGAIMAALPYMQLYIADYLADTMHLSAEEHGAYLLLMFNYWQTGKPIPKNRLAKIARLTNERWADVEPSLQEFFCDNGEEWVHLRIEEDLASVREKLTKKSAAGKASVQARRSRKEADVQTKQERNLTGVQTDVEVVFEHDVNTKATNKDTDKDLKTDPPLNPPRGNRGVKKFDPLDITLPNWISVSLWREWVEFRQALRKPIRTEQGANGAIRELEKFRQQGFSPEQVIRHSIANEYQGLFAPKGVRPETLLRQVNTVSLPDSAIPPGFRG

[4] = target: T4, AgaY (E. coli K-12, UniProt P0AB74 1-286)
T4 construct: AgaY, E. coli K-12

[5] = target: T5, AtpH (E. coli K-12, UniProt P0ABA4 1-177)
T5 construct: AtpH, E. coli K-12

[6] = target: T6, YfbR (E. coli K-12, UniProt P76491 1-199)
T6 construct: YfbR, E. coli K-12
T6 sequence (looked up): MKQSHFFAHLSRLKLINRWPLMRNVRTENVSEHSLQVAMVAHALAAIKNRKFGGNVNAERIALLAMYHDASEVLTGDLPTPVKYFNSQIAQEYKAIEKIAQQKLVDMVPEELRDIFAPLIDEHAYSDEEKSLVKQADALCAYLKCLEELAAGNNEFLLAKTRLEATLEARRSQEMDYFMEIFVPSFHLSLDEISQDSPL

Measured: binding result

T4 sequence (P0AB74 whole entry): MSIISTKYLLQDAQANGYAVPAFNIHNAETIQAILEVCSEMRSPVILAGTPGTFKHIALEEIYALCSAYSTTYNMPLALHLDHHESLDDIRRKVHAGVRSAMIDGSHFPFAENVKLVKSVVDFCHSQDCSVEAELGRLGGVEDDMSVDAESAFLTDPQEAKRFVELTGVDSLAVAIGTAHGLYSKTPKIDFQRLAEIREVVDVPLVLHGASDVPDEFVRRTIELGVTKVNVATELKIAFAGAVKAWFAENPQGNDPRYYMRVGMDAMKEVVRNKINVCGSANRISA
T5 sequence (P0ABA4 whole entry): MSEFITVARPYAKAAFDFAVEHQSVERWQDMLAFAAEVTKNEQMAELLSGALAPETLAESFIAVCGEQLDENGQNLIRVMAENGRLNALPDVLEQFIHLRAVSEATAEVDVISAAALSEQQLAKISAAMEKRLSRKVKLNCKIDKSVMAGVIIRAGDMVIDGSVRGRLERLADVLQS

B1: N-terminal biotinylated Lactoferricin B (peptide, UniProt P24627 36-60, looked up)
peptide: Biotin-FKCRRWQWRMKKLGAPSITCVRRAF
modifications: ends and bridges not checked
notes: lactoferricin B (LfcinB), cationic antimicrobial peptide of 25 amino acids; also called biotinylated LfcinB; biotin-labeled LfcinB; source: bought: Kelowna Inc
binds: all assays above

From publication PMC3229523, “Identification of Lactoferricin B Intracellular Targets Using an Escherichia coli Proteome Chip” (PLoS ONE, 2011)
